In patent US20120107301A1:

What was measured:
[1] = biological target: L-SIGN expressed on K562 cells (human) (UniProt Q9H2X3); assay: flow cytometry on K562/L-SIGN cells
[2] = biological target: recombinant human DC-SIGN (human) (UniProt Q9NNX6); assay: ELISA on recombinant DC-SIGN
[3] = biological target: recombinant human L-SIGN (human) (UniProt Q9H2X3); assay: ELISA on recombinant L-SIGN

UniProt Q9NNX6, sequence (Q9NNX6 59-404 limits assumed): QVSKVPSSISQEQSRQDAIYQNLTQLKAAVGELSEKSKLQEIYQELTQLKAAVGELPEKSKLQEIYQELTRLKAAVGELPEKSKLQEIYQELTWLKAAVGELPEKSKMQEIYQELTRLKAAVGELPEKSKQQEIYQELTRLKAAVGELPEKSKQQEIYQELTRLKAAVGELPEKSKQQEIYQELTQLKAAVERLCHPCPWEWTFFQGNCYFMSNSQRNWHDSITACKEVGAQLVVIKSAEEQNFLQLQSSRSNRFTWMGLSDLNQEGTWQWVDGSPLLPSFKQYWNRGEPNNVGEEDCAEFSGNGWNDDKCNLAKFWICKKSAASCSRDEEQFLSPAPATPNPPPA

Geo. Mean Flourecence [1]: 21.3 | OD405 [2]: 0.1 OD405 | OD405 [3]: 2.9 OD405
B1: additional IgG1k antibody clone A10 (antibody, from a related filing, V domains shown)
VH: EVQLQQSGPELEKPGASVKISCKASGYSFTGYNMNWVKQSNGKSLEWIGNIDPYYGDITYNQKFKGKATLTVDKSSSTAYMQLKSLTSEDSAVYYCARTATALYTMDYWGQGTSVTVSS
VL: EIVLTQSPAIMSASLGERVTMTCTASSSVSSSYLHWYQQKPGSSPKLWIYSTSNLASGVPARFSGSGSGTSYSLTISSMEAEDAATYYCHQYHRSPQTFGGGTKLEIK
